Data: patent US20230126400A1 (Alector, published 2023)
Positions count from the first letter of the chain named.

T1: human MS4A4A ECL1 peptide (amino acid residues 86-98) (human)
T1 construct: synthetic peptide
T1 peptide: CMASNTYGSNPIS

T2: human MS4A4A ECL2 peptide (amino acid residues 159-179), free (human)
T2 construct: synthetic peptide; also called huMS4A4A-ELC2 free-peptide
T2 peptide: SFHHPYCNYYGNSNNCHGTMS

B1: anti-MS4A4A antibody 4A-201 (murine) (antibody, V domains shown)
VH: QVQLRESGPGLVAPSQSLSITCTVSGFSLSSFGVTWVRQPPGKGLEWLGIIWGDGSTNYHSALISRLSISKDNSKSQVFLKLNRLQTDDTATYYCAKRDYDGREDVMGYWGQGTSVTVSS
VL: DIVMTQSQKFMSTSVGDRVSITCKATQNVRTAVAWYQQKPGQSPKPLIYLASNRHTGVPDRFTGSGSGTDFTLTITNVQSEDLADYFCLQHWSYPLTFGAGTKLEMK
notes: murine hybridoma antibody
B2: anti-MS4A4A antibody 4A-225 (antibody, V domains shown)
VH: B1 VH with R5K, S30T, T35N, V37F, Y59F, I64M, E104D
VL: B1 VL with F10I, T26S, N28T, P46A, T76S
notes: murine hybridoma antibody
B3: anti-MS4A4A antibody 4A-205 (murine) (antibody, V domains shown)
VH: EVQLVESGGDLVKPGGSLKLSCAASGFTFSHYGMSWVRQTPDKRLDWVATIGRDGIHTDYRDSVKGRFTISRDNAKNTLYLQMGSLKSEDSAIFYCARHLYYGLYYSMDYWGQGTSVTVSS
VL: ENVLTQSPAIMSASPGEKVTMTCSASSSVSFMYWYQQKSSTSPKLWIYDTSKLASGVPGRFSGSGSGNSYSLTISSMEAEDVATYYCFQGSGYPLTFGSGTKLEIK
notes: murine hybridoma antibody
B4: anti-MS4A4A antibody 4A-209 (murine) (antibody, V domains shown)
VH: EVKLLESGGGLVQPGGSLKLSCAASGFDFSRYWMSWVRQAPGKGLEWIGEIKSDSSTINYTPSLKDKFIISRDNAKNTLYLQMSKVRSEDTALYYCARRGFYDYDAWFAYWGQGTLVTVSS
VL: QIVLTQSPTLMSASPGEKVTMTCSASSSVTYMYWYQQKPRSSPKPWIYLTSNRASGVPTRFSGSGSGTSHSLTISYMEAEDAATYYCQQWSSNPPTFGAGTKLELR
notes: murine hybridoma antibody
B5: anti-MS4A4A antibody 4A-217 (murine) (antibody, V domains shown)
VH: EVKLVESGGGLVKPGGSLKLSCAASGFTFSSYGMSWVRQTPEKRLEWVAHISGGGTFTHYPDSVKGRFTISRDNAKNNLYLQMSSLRSEDTALYYCAREGAGTRFAYWGQGTLVTVSS
VL: DIQMTQTTSSLSASLGDRVTISCRPSQDISNSLNWYQQKPDGTVKLLIYSTSKLHSGVPSRFSGSGSGIDYSLTISNLEQEDIATYFCQQDYTLPWTFGGGTKLDVK
notes: murine hybridoma antibody
B6: anti-MS4A4A antibody 4A-203 (murine) (antibody, V domains shown)
VH: DVKLVESGGGLVKLGGSLKLSCAASGFTFSSFYMSWVRQTPEKRLELVAAINSNGGSTYYPDTVKGRFTISRDNAKNTLYLQMSSLKSEDTALYYCARQNYYGSSSYWYFDVWGAGTTVTVSS
VL: EIVLTQSPALMAASPGEKVTITCSVSSSISSSNLHWYRQKSETSPKPWIYGTSNLASGVPVRFSGSGSGTSYSLTISSMEAEDAATYYCQQWSRYPLTFGAGTKLELK
notes: murine hybridoma antibody
B7: anti-MS4A4A antibody 4A-210 (murine) (antibody, V domains shown)
VH: DVKLVESGGGLVKPGGSLKLSCAASGFTFGTYTMSWVRQTPEKRLEWVATISSGGSYTFYPDSVKGRFTISRDNAKNTLYLQMSSLKSEDTAMYYCTRDNTTGDRGWYFDVWGAGTTVTVSS
VL: DIVLTQSPVSLAVSLGQRATISCQASESVSFAGKSLMHWFQQKPGQPPKLLIYRASNLESGVPARFSGSGSESDFTLTIDPVEEDDATMYYCMQSMEDPRTFGGGTKLEIK
notes: murine hybridoma antibody
B8: anti-MS4A4A antibody 4A-201, huIgG1 chimera (antibody, V domains shown)
VH: B1 VH
VL: B1 VL
B9: anti-MS4A4A antibody 4A-205, huIgG1 chimera (antibody, V domains shown)
VH: B3 VH
VL: B3 VL
B10: anti-MS4A4A antibody 4A-206, huIgG1 chimera (antibody, V domains shown)
VH: EVKLVESGGGLVKPGGSLKLSCAASGFTFSSYTMSWVRQTPEKRLEWVASLSSGGSTYYPDSVKGRFTISRDNARNILYLQMSSLRSEDTAMYYCAKDYYVSSYRWYFDVWGAGTTVTVSS
VL: DIQMTQITSSLSASLGDRVTISCRASQDISNYLNWYQQKPDGTVKLLIYYTSNLHSGVPSRFSGSGSGTDYSLTISNLEQEDIATYFCQQGKSFPWTFGGGTKLEIK
B11: anti-MS4A4A antibody 4A-207, huIgG1 chimera (antibody, V domains shown)
VH: EVNLEESGGGLVQPGGSMKLSCVASGFTFNNYWMNWVRQSPEKGLEWVAEIRLKSNNYATHYAESVKGRFTISRDDSKSSVYLQMNNLRPEDTAIYYCTTDPPMDYSGQGTPVTVSS
VL: QIVLTQSPAFMSASPGEKVTITCSASSSVSYMHWFQQKPGTSPKLWIYSTSNLVSGVPDRFSGSGSGTSYSLTISRMEAEYAATYYCHQRTSYPWTFGGGTKLEIK
B12: anti-MS4A4A antibody 4A-208, huIgG1 chimera (antibody, V domains shown)
VH: EVHLQQSGAEVVKPGASVKLSCTASGFNIKDTYIHWVMQRPEQGLEWIGRIDPANDNTKYDPKFQGKATITSDTSSNTAYLHLSSLTSEDTAVYYCARIAYGSWALDYWGQGTSVTVSS
VL: DIVMTQSQKFMSTSVGDRVIVTCKASQNVDTNVAWYQQKPGQSPKTLIYSASFRYSGVPDRFTGSGSGTDFTLSISNVQSEDLAEYFCQQYNSYPWTFGGGTKLEIK
B13: anti-MS4A4A antibody 4A-209, huIgG1 chimera (antibody, V domains shown)
VH: B4 VH
VL: B4 VL
B14: anti-MS4A4A antibody 4A-213, huIgG1 chimera (antibody, V domains shown)
VH: QVQLKESGPGLVAPSQSLSITCTVSGFSLTSYGVHWVRQPPGKGLEWLGVIWVGGSTNYNSALMSRLSISKDNSKSQVFLKMNSLQTDDTAMYYCARAVYYYGSSYYFDYWGQGTTVTVSS
VL: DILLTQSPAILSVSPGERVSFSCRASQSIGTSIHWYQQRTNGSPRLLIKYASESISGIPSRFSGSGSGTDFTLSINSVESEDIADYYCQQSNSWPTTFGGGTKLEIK
B15: anti-MS4A4A antibody 4A-217, huIgG1 chimera (antibody, V domains shown)
VH: B5 VH
VL: B5 VL
B16: anti-MS4A4A antibody 4A-207 (murine) (antibody, V domains shown)
VH: B11 VH
VL: B11 VL
notes: murine hybridoma antibody

Molecular target: T1, human MS4A4A ECL1 peptide (amino acid …)
Assay: peptide ELISA
Description: Briefly, 96-well polystyrene plates were coated with […] of synthetic free or BSA-conjugated peptides in coating buffer (0.05M carbonate buffer, pH9.6, Millipore Sigma Cat#C3041) overnight at 4° C. Coated plates were then blocked with ELISA diluent (PBS+0.5% BSA+0.05% Tween20) for 1-hour, washed 3×300 μL in PBST (PBS+0.05% Tween20, Thermo Cat#28352), and then the antibodies were added to the plate (50 μl/well). After 30 mins incubation (room temperature, with shaking), the plates were washed 3×300 μL in PBST. […] After a final set of washes (3×300 μL in PBST), 50 μL of TMB substrate (BioFx Cat#TMBW-1000-01) was added and the reaction was then quenched after 5-10 mins with 50 μL of stop solution (BioFx Cat#BSTP-1000-01). The quenched reaction wells were detected for absorbance at 650nm with a BioTek Synergy Microplate Reader using GENS 2.04 software.

| Binder | binding result |
| --- | --- |
| B1 | no binding |
| B2 | no binding |
| B3 | no binding |
| B4 | no binding |
| B5 | no binding |
| B6 | no binding |
| B7 | no binding |

molecular target: T3, human MS4A4A (human, UniProt Q96JQ5 1-239); assay: FACS, U937 cells, supernatant
Description: (§1) Positive clones identified in Example 22 above were expanded and then rescreened for specificity against U937, K562, and/or 300.19 cells stably overexpressing human MS4A4A or cyno MS4A4A and parental U937, K562, and/or 300.19 cells. These experiments were performed using supernatants from hybridoma clones which had undergone further expansion after initial selection. Briefly, stably transfected cells were labeled with LIVE/DEAD Fixable Aqua Dead Cell Stain Kit (ThermoFisher Scientific Cat#L34957) on ice for 30 minutes. […] 2×10⁵ cells were aliquoted per well in 96-well U-bottom plates and incubated with 50 μl of culture supernatant on ice for 30 minutes. […] Following this secondary incubation, the cells were again washed twice with ice-cold FACS buffer and resuspended in a final volume of 200 μl of FACS buffer. Analysis was performed on a FACS Canto system (BD Biosciences), with gates drawn to exclude dead (Aqua-positive) cells.
(§2) The APC ratio was calculated for each antibody as follows. […] For cell lines overexpressing human MS4A4A (h4A) or cyno MS4A4A (cy4A), the ration was calculated by comparing the binding measured to the binding observed on the corresponding parental cell lines.

| Binder | fold increase in MFI [fold] |
| --- | --- |
| B3 | > 2 |
| B5 | > 2 |

molecular target: T3, human MS4A4A; assay: FACS, parental U937 cells (endogenous human MS4A4A, not overexpressed), 5 ug/ml
Description: (§3) Purified huIgG1 chimeric anti-MS4A4A antibodies were screened for their ability to differentially bind MS4A4A on U937 cells stably overexpressing human MS4A4A, U937 cells with human MS4A4A knocked out, and parental U937 cells. Differential binding to MS4A4A expressed on these cells was assessed by FACS analysis using 5 μg/ml of purified anti-MS4A4A chimeric antibodies, as described above.

| Binder | ratio of MFI over secondary antibody alone [ratio] |
| --- | --- |
| B8 | 1.1 |
| B9 | 1 |
| B10 | 1.1 |
| B11 | 1.1 |
| B12 | 1.1 |
| B13 | 1.1 |
| B14 | 1.1 |
| B15 | 1.1 |

Molecular target: T2, human MS4A4A ECL2 peptide (amino acid …)
Assay: peptide ELISA, supernatant

| Binder | binding result |
| --- | --- |
| B1 | no binding |
| B2 | no binding |
| B3 | no binding |
| B4 | no binding |
| B5 | no binding |
| B6 | no binding |
| B7 | no binding |

molecular target: T4, cynomolgus (cyno) MS4A4A (cynomolgus); assay: FACS, 300.19 cells, supernatant
T4 construct: also called cy4A; Cyno 4A
Description: as §1, §2

| Binder | fold increase in MFI [fold] |
| --- | --- |
| B1 | > 2 |
| B2 | > 2 |
| B3 | > 2 |
| B16 | > 2 |
| B4 | > 2 |
| B5 | > 2 |

molecular target: T3, human MS4A4A; assay: FACS, K562 cells, supernatant
Description: as §1, §2

| Binder | fold increase in MFI [fold] |
| --- | --- |
| B1 | > 2 |
| B2 | > 2 |
| B3 | > 2 |
| B16 | > 2 |
| B4 | > 2 |

molecular target: T3, human MS4A4A; assay: FACS, U937 cells overexpressing human MS4A4A, 5 ug/ml
Description: as §3

| Binder | ratio of MFI over secondary antibody alone [ratio] |
| --- | --- |
| B8 | 8.9 |
| B9 | 25.3 |
| B10 | 18.5 |
| B11 | 10 |
| B12 | 19.9 |
| B13 | 19.8 |
| B14 | 13 |
| B15 | 23.6 |
